Source: PMC6437178

Target: engineered Salmo salar Ctr1 crystallization construct sCtr1_(cryst) (Salmo salar | not stated)
Test: crystal structure; hanging-drop vapor diffusion at 20 °C; 26-28% PEG 400, 50 mM zinc acetate, 50 mM sodium cacodylate pH 5.9; protein in CYMAL-5; Cu^+-free (3.0 Å) and Cu^+-bound (3.2 Å) states; trimer on the crystallographic three-fold axis

stoichiometry N: 3
Substance: engineered Salmo salar Ctr1 crystallization construct sCtr1_(cryst) (from UniProt A0A1S3KYH5 41-93; A0A1S3KYH5 121-184)
